# Assay results as given in the RNAGym collection of RNA variant scans (doi:10.1073/pnas.2313332121).
# B1: TPR t1 (parent)
# chain: GACCAAUCUGCCCUCAGAGCUCGAGAACAUCUUCGGAUGCAGAGGAGGCAGGCUUCGGUGGCGCGAUAGCGCCAACGUCCUCAACCUCCAAUGCAUCCCACCACAUGAUGAUGCCUGAAGAGCCUUGGUUUUUUG
# Variants of: B1
# Assay: polymerase ribozyme fitness, log enrichment relative to wild type (log ratio); higher = more active; in vitro selection for triplet polymerase activity
# Summary of the method: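 To select mutant libraries of each subunit of a heterodimeric triplet polymerase ribozyme, built by PCR and transcribed, each was annealed with a biotinylated primer, partner subunit and triplets, then incubated frozen at −7 °C. Extended constructs were gel-excised, captured on streptavidin beads and amplified by RT-PCR, in one round carried out in triplicate. Illumina sequencing of input and output libraries kept genotypes with ≥10 input reads and ≥1 read per output. Fitness is the base-2 logarithm of genotype enrichment relative to wild-type enrichment, from inverse-variance-weighted replicate averages.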
row,Variant,polymerase ribozyme fitness (log ratio)
1,C88G C97A C104U,-5.23
2,A84C U116G,-1.83
3,U81G G110U G128A,-6.9
4,C82G C101A C115A,-2.63
5,C88A C99U G113A C114U,-5.9
6,C88U A118U,0.45
7,C79U A95C A118U,-0.263
8,C82G U116G,-2.05
9,U87A C99U G110U,-5.56
10,U78C U81G G120C,-1.18
11,U78C C124G,1.08
12,C79A C115A,-2.1
13,U78C U81A U87G C123G,1.68
14,C88A G110A,-1.49
15,C88A C102A G107A A111C U116G C123G U125A,-6.39
16,C80U G117C,-3.58
17,C82A U112A C114G,-0.66
18,C80U C102A,-2.21
19,U87C A90C C115A,-0.371
20,U87C A90G C94U,0.339
21,C79A A100C,-2.29
22,U78G C86U U133A,-0.63
23,C82A U112G,0.0724
24,C85A C94G G110A,-3.12

row,Variant,polymerase ribozyme fitness (log ratio)
1,C82A C86A,-0.787
2,C82A C86G,-1.3
3,U87A C89G,-2.18
4,C80G U87G C88A U112A,-4.77
5,A84G G127C,-2
6,C79G C115G,-4.07
7,C82G A83C C115G G122A,-2.67
8,C82U C88A,-0.557
9,U87A G93A,-0.908
10,C82G U132A,-0.6
11,A84U U131G,-0.716
12,C85U C101A C104A,-3.57
13,U87C C88A U106G,-2.76
14,A84G G93U U125G,-2.63
15,A84U C114U,-2.03
16,A83U C104A,-1.18
17,U81C,-0.208
18,U81G,-3.8
19,U81A,-1.01
20,C86A C104A C124G G128U U133A,-1.59
21,C86G A108G U130A,-3.28
22,C80U C101U A121C,1.19
23,C88A G117U,-2.84
24,U81G U125A,-3.53

row,Variant,polymerase ribozyme fitness (log ratio)
1,C88G G117A,-2.35
2,C79A U131C,-0.838
3,C82A C102A,-2.33
4,C80U G110A,-1.21
5,U81A C94U G117A C123G,-5.66
6,C80U A103C,-6.57
7,A84U C124A,1.73
8,U81C C124A,0.431
9,A84U C88A,-1.4
10,A83G U109C,-5.77
11,U78C U130G,-0.922
12,U78C U81G,-3.03
13,U78C U81C,-0.434
14,C86A U112C,-0.51
15,C79U C94G A100C G117C,-6.32
16,C88A G107A,-5.92
17,C86A G135U,-1.3
18,U81C C85U A118G G122U C124U U129A,-3.58
19,C79G C82G U92A A121G,-5.59
20,C85G C86A,-1.69
21,C86A G110A C123G,-1.37
22,C85U U132A,-1.56
23,U78C U87G,0.287
24,U78C U87A,1.12

row,Variant,polymerase ribozyme fitness (log ratio)
1,U78C U87C,0.532
2,C79A U92C C98G C104A C114G,-7.71
3,A83U G117U,-1.02
4,C85A U96A,-2.43
5,C79A G93U,-2.82
6,C85G C114G,-3.82
7,U78C C102G,-5.35
8,C79A C88U,-1.33
9,C88U C98A,-4.94
10,U87A G113C,-2.81
11,U87A C99A C115G G122U C124G,-7.12
12,C79U C104A,-2.22
13,C88A C104A A121U U130C,0.158
14,C86A C124A,1.35
15,C85A G128C,-4.07
16,A83C C86G,-1.46
17,C86G U116A,-4.49
18,U87C C115U,-0.297
19,C79U C99A U112C,-4.18
20,C82G C99A C101U A119G,-6.25
21,U78C G120A,0.768
22,C86U C94A U106G,-3.23
23,C80G A119U,-2.85
24,C85U U116A C123U U129A,-5.12

row,Variant,polymerase ribozyme fitness (log ratio)
1,C79A G117C,-5.12
2,C79A G117A,-2.46
3,C88A C123U G127U U131G,-0.279
4,A83U C85A U112A C114A,-3.32
5,C88A C94A,-1.66
6,C88A C94U,-0.581
7,C80U G117A U133G,-1.17
8,A83G U112C U131A,1.02
9,U78C U92C U96C U106A,-1.75
10,U78C C114A,-1.63
11,C79U A91U,-2.48
12,C85U C114G,-3.53
13,C79U G135U,-0.964
14,C86U C114A,-1.71
15,C82G C115A C123A,-1.32
16,C79G C89U A91C,-4.46
17,U78C C99A U106C,-4.95
18,C85U A95U C115A G120C,-0.474
19,C85A C94A A111U,-5.51
20,C80U U112A,0.959
21,C88U C97U,-1.02
22,C85U C97A C115G,-5.83
23,A83C U106A,0.162
24,A83C U106C,-0.823

row,Variant,polymerase ribozyme fitness (log ratio)
1,C82U A100C C123U,-0.0044
2,C79A C85A A119U,-5.64
3,U78C C101A,-0.679
4,A83G G120U C124A G135A,0.857
5,C82G C114U,-2.95
6,U78C U92A,-3.1
7,C86U C88U,0.0768
8,U78C C115U,0.0691
9,U78C G113A G135U,-2.01
10,C79U G110U G120C G122A,-4.4
11,C79A G127U,-2.57
12,U81A G110A,-2.37
13,C80U C114A,-1.85
14,A84U C97U,-0.894
15,C88A A95U C102A G120A,-3.23
16,C82G C102A G120A G122U,-2.05
17,C86A A121G,1.66
18,U81A U129C,-1.37
19,C79U A118C,-2.46
20,A83G C97U U109A,-5.36
21,C88A G93C,-2.45
22,C82U G127A,-1.24
23,C82U A108U A121G,-4.59
24,U81C C82A,-1.8

row,Variant,polymerase ribozyme fitness (log ratio)
1,U81C A121G,0.253
2,C82A C94U,-0.596
3,C79A U81C G120U G135C,-2.91
4,C80G A121U,-3.78
5,C88G C124G,1.77
6,C88G C124U,0.871
7,U81G U125A U131G,-4.64
8,A84C C98A C114G U116C,-4.74
9,U81A C88U,-0.655
10,A84G U109G,-5.8
11,C88A C102A,-2.16
12,C88G G110A,-1.15
13,A83C C115G,-1.92
14,A84U C114A U131A,-0.993
15,C79G U92C,-3.03
16,U78C G110U,-1.27
17,C82G U109G,-5.33
18,A83C C114G,-2.24
19,C85G U133G,-2.39
20,A83C G120A,0.209
21,C79U C94A C102A G120C,-2.46
22,C88A C124A,0.767
23,C88A U126A,-3.12
